Biological target: the molecule itself
Assay: size exclusion chromatography and non-reducing SDS-PAGE
Description: hCaSR-ECD (from residue Tyr²⁰ to Phe⁶¹²) (FIG. 1) was expressed in suspension culture of HEK293S (GnTI-) cells and purified from the culture medium by Ni²⁺-NTA chromatography as previously described. To deglycosylate the purified protein, hCaSR-ECD was incubated with recombinant endoglycosidase F1 (Endo F1) at a 1:100 mass ratio of Endo F1 to hCaSR-ECD²⁶ overnight at 4° C. in 10 mM Tris buffer, pH 7.4. Further separation of hCaSR-ECD from Endo F1 was achieved by size exclusion chromatography (SEC) in 10 mM HEPES (pH 7.3) buffer. hCaSR-ECD forms a homodimer, as determined by the elution volume observed in SEC.

B1: extracellular domain of the human calcium-sensing receptor (hCaSR-ECD), residues Tyr20 to Phe612 (receptor, UniProt P41180 20-612, looked up)
chain: YGPDQRAQKKGDIILGGLFPIHFGVAAKDQDLKSRPESVECIRYNFRGFRWLQAMIFAIEEINSSPALLPNLTLGYRIFDTCNTVSKALEATLSFVAQNKIDSLNLDEFCNCSEHIPSTIAVVGATGSGVSTAVANLLGLFYIPQVSYASSSRLLSNKNQFKSFLRTIPNDEHQATAMADIIEYFRWNWVGTIAADDDYGRPGIEKFREEAEERDICIDFSELISQYSDEEEIQHVVEVIQNSTAKVIVVFSSGPDLEPLIKEIVRRNITGKIWLASEAWASSSLIAMPQYFHVVGGTIGFALKAGQIPGFREFLKKVHPRKSVHNGFAKEFWEETFNCHLQEGAKGPLPVDTFLRGHEESGDRFSNSSTAFRPLCTGDENISSVETPYIDYTHLRISYNVYLAVYSIAHALQDIYTCLPGRGLFTNGSCADIKKVEAWQVLKHLRHLNFTNNMGEQVTFDECGDLVGNYSIINWHLSPEDGSIVFKEVGYYNVYAKKGERLFINEEKILWSGFSREVPFSNCSRDCLAGTRKGIIEGEPTCCFECVECPDGEYSDETDASACNKCPDDFWSNENHTSCIAKEIEFLSWTEPF
modifications: N-glycans trimmed with endoglycosidase F1 before SEC and crystallization (expressed in HEK293S GnTI- cells)
notes: range 20-612; This entry is one protomer; also called ECD of CaSR
binding result: binds
